Patent publication US20140356359A1 (RINAT NEUROSCIENCE, published 2014)

Assays:
[1] = target: full-length cyno GHR on transfected HEK293 cells (cynomolgus monkey); assay: cell-based or functional assay
[2] = target: T1, human GHR (as in Tables 1 and 2) (human, UniProt P10912 49-253, limits assumed); assay: Biacore, Fab, 25 C
T1 sequence: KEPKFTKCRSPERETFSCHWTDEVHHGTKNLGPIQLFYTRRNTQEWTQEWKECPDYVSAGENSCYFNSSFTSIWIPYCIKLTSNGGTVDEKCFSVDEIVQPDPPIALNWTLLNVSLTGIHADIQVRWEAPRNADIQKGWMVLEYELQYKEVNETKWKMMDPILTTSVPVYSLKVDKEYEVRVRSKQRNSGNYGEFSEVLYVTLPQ

[3] = target: T1, human GHR (as in Tables 1 and 2); assay: Biacore, 25 C; 25 C (no asterisk)
[4] = target: T1, human GHR (as in Tables 1 and 2); assay: Biacore, Fab, 37 C
[5] = target: T2, cyno GHR, his-tagged monomer of amino acids 31-235 of the extracellular domain (cynomolgus monkey, UniProt Q9XSZ1 49-253 (Papio anubis entry)); assay: Biacore 2000, antibody captured on anti-human Fc, GHR as analyte, 25 C, replicate
T2 construct: not shown: his tag
T2 chain: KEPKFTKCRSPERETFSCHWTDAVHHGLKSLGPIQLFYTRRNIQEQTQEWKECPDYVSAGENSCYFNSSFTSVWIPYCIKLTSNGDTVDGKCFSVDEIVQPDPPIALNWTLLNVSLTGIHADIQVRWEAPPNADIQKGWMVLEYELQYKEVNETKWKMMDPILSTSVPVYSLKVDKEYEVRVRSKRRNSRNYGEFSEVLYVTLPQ
Experimental: (§1) An anti-human Fc sensor chip was prepared by activating all flow cells of a Biacore™ CM4 sensor chip with a 1:1 (v/v) mixture of 400 mM ethyl-N-(3-diethylaminopropyl)carbodiimide (EDC, Biacore™) and 100 mM N-hydroxysuccinimide (NHS, Biacore™) for 7 minutes, at a flow rate of 10 μL/min. […] All flow cells were blocked with 100 mM ethylenediamine in 150 mM borate buffer pH 8.5 for 7 minutes at 10 μL/min.
(§2) Antibodies were captured onto downstream flow cells (flow cells 2, 3 and 4) at 4 μg/mL at a flow rate of 10 μL/min for 1 minute. Different antibodies were captured on each flow cell. Flow cell 1 was used as a reference surface. Following capture of antibodies, analyte (buffer, human GHR or cyno GHR) was injected at 30 μL/min on all flow cells for two minutes. […] After the analyte injection, dissociation was monitored for 30 minutes (for the 400 nM GHR cycle) or 30 seconds (all other cycles) followed by regeneration of all flow cells with two 30-second injections of 75 mM phosphoric acid. A 5-membered dilution series of GHR was analyzed using this method, where the top concentration was 400 nM and the dilution factor was 3-fold. Buffer cycles were collected with both 30 minute and 30 second dissociation times for double-referencing purposes. The double-referenced sensorgrams were fit globally to a simple 1:1 Langmuir with mass transport binding model.
(§3) The experiments were performed at 25° C. using a running buffer of 10 mM HEPES, 150 mM NaCl, 0.05% (v/v) Tween-20™, pH 7.4.

[6] = target: T3, human GHR, his-tagged monomer of amino acids 31-235 of the extracellular domain (human, UniProt P10912 49-253); assay: as above
T3 construct: not shown: his tag
T3 sequence: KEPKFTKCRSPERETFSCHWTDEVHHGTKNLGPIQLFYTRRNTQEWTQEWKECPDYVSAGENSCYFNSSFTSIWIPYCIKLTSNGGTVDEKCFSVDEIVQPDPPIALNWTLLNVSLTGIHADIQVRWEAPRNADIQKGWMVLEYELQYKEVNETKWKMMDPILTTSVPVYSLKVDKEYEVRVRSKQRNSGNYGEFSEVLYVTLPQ
Experimental: as §1, §2, §3

[7] = target: T2, cyno GHR, his-tagged monomer of amino …; assay: Biacore 2000, antibody captured on anti-human Fc, GHR as analyte, 25 C
Experimental: as §1, §2, §3

[8] = target: T3, human GHR, his-tagged monomer of amino …; assay: as above
Experimental: as §1, §2, §3

[9] = target: T1, human GHR (as in Tables 1 and 2); assay: Biacore, IgG2ΔA, 25 C
[10] = target: T1, human GHR (as in Tables 1 and 2); assay: Biacore, 37 C (asterisk)
[11] = target: T2, cyno GHR, his-tagged monomer of amino …; assay: Biacore T200, Fab captured on anti-human kappa, GHR as analyte, 37 C
Experimental: as §1, with “kappa” for “Fc”, “EDC” for “ethyl-N-(3-diethylaminopropyl)carbodiimide (EDC, Biacore™)”, “NHS” for “N-hydroxysuccinimide (NHS, Biacore™)”
(§4) The kinetics assay was run using a methodology with varying dissociation times as described in Katsamba et al., supra. Fabs were captured onto downstream flow cells (flow cells 2, 3 and 4) at 2 μg/mL at a flow rate of 10 μL/min for 2 minutes. Different Fabs were captured on each flow cell. Flow cell 1 was used as a reference surface. Following capture of fabs, analyte (buffer, human GHR or cyno GHR) was injected at 30 μL/min on all flow cells for two minutes. […] A 6-membered dilution series of GHR was analyzed using this method, where the top concentration was 400 nM and the dilution factor was 3-fold. Buffer cycles were collected with both 30 minute and 60 second dissociation times for double-referencing purposes. The double-referenced sensorgrams were fit globally to a simple 1:1 Langmuir with mass transport binding model.
(§5) The experiments were performed at 37° C. using a running buffer of 10 mM HEPES, 150 mM NaCl, 0.05% (v/v) Tween-20™, pH 7.4.

[12] = target: T3, human GHR, his-tagged monomer of amino …; assay: as above
Experimental: as §1, with “kappa” for “Fc”, “EDC” for “ethyl-N-(3-diethylaminopropyl)carbodiimide (EDC, Biacore™)”, “NHS” for “N-hydroxysuccinimide (NHS, Biacore™)”
as §4, §5

[13] = target: T4, hGHR-hFc fusion protein (R&D Systems Catalog#1210-GR) (human, UniProt P10912 19-264); assay: Biacore T200, hGHR-hFc captured on anti-human Fc, Fab as analyte, 37 C
T4 construct: bought; also called hGHR/Fc; human GHR/hFc; not shown: human Fc of the bought fusion protein
T4 sequence: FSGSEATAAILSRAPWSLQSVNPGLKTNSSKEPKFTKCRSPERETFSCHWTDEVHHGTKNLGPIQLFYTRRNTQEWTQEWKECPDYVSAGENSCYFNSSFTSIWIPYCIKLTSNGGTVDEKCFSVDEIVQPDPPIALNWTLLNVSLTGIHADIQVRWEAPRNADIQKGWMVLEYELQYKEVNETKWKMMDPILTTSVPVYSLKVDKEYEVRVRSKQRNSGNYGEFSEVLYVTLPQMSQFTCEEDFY
Experimental: as §1, with “EDC” for “ethyl-N-(3-diethylaminopropyl)carbodiimide (EDC, Biacore™)”, “NHS” for “N-hydroxysuccinimide (NHS, Biacore™)”
The kinetics assay was run using a methodology with varying dissociation times as described in Katsamba et al., supra. […] Flow cell 1 was used as a reference surface. Following capture of hGHR-hFc, analyte (buffer, SS1 Fab or Ab13 Fab) was injected at 30 μL/min on all flow cells for two minutes. After the analyte injection, dissociation was monitored for 30 minutes (400 nM Fab cycle) or 60 seconds (all other cycles) followed by regeneration with two 30-second injections of 75 mM phosphoric acid. A 5-membered dilution series of Fab was analyzed using this method, where the top concentration was 400 nM and the dilution factor was 3-fold. Buffer cycles were collected at both 30 minute and 60 second dissociation times for double-referencing purposes. The double-referenced sensorgrams were fit globally to a simple 1:1 Langmuir with mass transport binding model (with a local Rmax parameter for each flow cell).
as §5

Sequence of full-length cyno GHR on transfected HEK293 cells (cynomolgus monkey) (Q9XSZ1 other isoform, or with tags, fused parts or gaps limits assumed): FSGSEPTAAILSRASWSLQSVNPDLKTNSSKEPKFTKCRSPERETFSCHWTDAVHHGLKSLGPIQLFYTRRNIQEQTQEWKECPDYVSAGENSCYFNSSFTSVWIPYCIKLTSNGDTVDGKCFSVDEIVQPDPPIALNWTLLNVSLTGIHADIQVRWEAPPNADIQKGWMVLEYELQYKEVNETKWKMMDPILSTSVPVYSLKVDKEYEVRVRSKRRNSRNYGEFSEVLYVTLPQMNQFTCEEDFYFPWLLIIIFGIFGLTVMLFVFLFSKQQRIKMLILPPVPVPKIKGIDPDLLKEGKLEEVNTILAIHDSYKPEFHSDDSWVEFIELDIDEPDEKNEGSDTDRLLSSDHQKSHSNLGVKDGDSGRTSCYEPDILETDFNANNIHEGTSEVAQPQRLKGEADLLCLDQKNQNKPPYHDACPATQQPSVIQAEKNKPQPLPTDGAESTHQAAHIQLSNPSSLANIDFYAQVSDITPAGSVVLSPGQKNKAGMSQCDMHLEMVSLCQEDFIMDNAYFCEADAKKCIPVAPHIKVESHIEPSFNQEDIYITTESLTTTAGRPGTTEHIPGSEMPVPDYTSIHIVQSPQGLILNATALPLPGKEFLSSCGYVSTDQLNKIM

human growth hormone (from UniProt P01241 27-217) (ligand)
STAT5 phosphorylation, fluorescent signal (Ave); 4.5 nM GH (fluorescent signal) [1]: 562
STAT5 phosphorylation, fluorescent signal (ave); 4.5 nM GH (fluorescent signal) [1]: 847

B1: SS4 Fab (Fab, V domains shown)
VH: EVQLVESGGGLVKPGGSLRLSCAASGFTFSDAWMDWVRQAPGKGLEWVAEIRSKANNHATYYAESVKGRFTISRDDSKNTLYLQMNSLKTEDTAVYYCTLYRDYWGQGTLVTVSS
VL: EIVLTQSPGTLSLSPGERATLSCTATSSVSSSYLHWYQQKPGQAPRLLIYSTSNLASGIPDRFSGSGSGTDFTLTISRLEPEDFAVYYCHQYHRSTPTFGGGTKVEIK
notes: Fab
Kd [2]: 28.4 nM
Kd [3]: 28.4 nM
Kd [4]: 124 nM

B2: SS1 hIgG2Δa (antibody, V domains shown)
VH: EVQLVESGGGLVKPGGSLRLSCAASGFTFSDAWMDWVRQAPGKGLEWVAEIRSKANYHATYYAESVKGRFTISRDDSKNTLYLQMNSLKTEDTAVYYCTLIRDYWGQGTLVTVSS
VL: EIVLTQSPGTLSLSPGERATLSCTATSSVSSSYLNWYQQKPGQAPRLLIYSTSNLASGIPDRFSGSGSGTDFTLTISRLEPEDFAVYYCHQYHRSTPTFGGGTKVEIKR
notes: humanized IgG; also called SS1 (replicate)
Kd [5]: 1.2 nM
koff [5]: 0.00011 s⁻¹
kon [5]: 89000 M⁻¹ s⁻¹
t 1/2 [5]: 107 min
Kd [6]: 0.8 nM
koff [6]: 6.4e-05 s⁻¹
kon [6]: 77000 M⁻¹ s⁻¹
t 1/2 [6]: 180 min
Kd [7]: 1.3 nM
koff [7]: 0.0001 s⁻¹
kon [7]: 81000 M⁻¹ s⁻¹
t 1/2 [7]: 111 min
Kd [8]: 1 nM
koff [8]: 7.7e-05 s⁻¹
kon [8]: 74000 M⁻¹ s⁻¹
t 1/2 [8]: 150 min

B3: SS4 IgG2ΔA (antibody, V domains shown)
VH: EVQLVESGGGLVKPGGSLRLSCAASGFTFSDAWMDWVRQAPGKGLEWVAEIRSKANNHATYYAESVKGRFTISRDDSKNTLYLQMNSLKTEDTAVYYCTLYRDYWGQGTLVTVSS
VL: EIVLTQSPGTLSLSPGERATLSCTATSSVSSSYLHWYQQKPGQAPRLLIYSTSNLASGIPDRFSGSGSGTDFTLTISRLEPEDFAVYYCHQYHRSTPTFGGGTKVEIK
notes: IgG2ΔA
Kd [9]: 43.1 nM

B4: SS3 hIgG2Δa (antibody, V domains shown)
VH: EVQLVESGGGLVKPGGSLRLSCAASGFTFSDAWMDWVRQAPGKGLEWVAEIRSKANNHATYYAESVKGRFTISRDDSKNTLYLQMNSLKTEDTAVYYCTLFRDYWGQGTLVTVSS
VL: EIVLTQSPGTLSLSPGERATLSCTATSSVSSSYLNWYQQKPGQAPRLLIYSTSNLASGIPDRFSGSGSGTDFTLTISRLEPEDFAVYYCHQYHRFTPTFGGGTKVEIKR
notes: also called SS3 IgG2ΔA
Kd [9]: 1.7 nM

B5: TM9 Fab (Fab, V domains shown)
VH: EVQLVESGGGLVKPGGSLRLSCAASGFTFSDAWMDWVRQAPGKGLEWVAEIRSKANYHATYYAESVKGRFTISRDDSKNTLYLQMNSLKTEDTAVYYCTLIRDYWGQGTLVTVSS
VL: EIVLTQSPGTLSLSPGERATLSCTATSSVSSSYLHWYQQKPGQAPRLLIYSTSNLASGIPDRFSGSGSGTDFTLTISRLEPEDFAVYYCHQYHRGTPTFGGGTKVEIK
notes: Fab
Kd [10]: 3.3 nM
Kd [4]: 3.3 nM

B6: SS3 Fab (Fab, V domains shown)
VH: EVQLVESGGGLVKPGGSLRLSCAASGFTFSDAWMDWVRQAPGKGLEWVAEIRSKANNHATYYAESVKGRFTISRDDSKNTLYLQMNSLKTEDTAVYYCTLFRDYWGQGTLVTVSS
VL: EIVLTQSPGTLSLSPGERATLSCTATSSVSSSYLNWYQQKPGQAPRLLIYSTSNLASGIPDRFSGSGSGTDFTLTISRLEPEDFAVYYCHQYHRFTPTFGGGTKVEIK
notes: Fab
Kd [10]: 1.99 nM
Kd [4]: 1.99 nM

B7: SS1 Fab (Fab, V domains shown)
VH: EVQLVESGGGLVKPGGSLRLSCAASGFTFSDAWMDWVRQAPGKGLEWVAEIRSKANYHATYYAESVKGRFTISRDDSKNTLYLQMNSLKTEDTAVYYCTLIRDYWGQGTLVTVSS
VL: EIVLTQSPGTLSLSPGERATLSCTATSSVSSSYLNWYQQKPGQAPRLLIYSTSNLASGIPDRFSGSGSGTDFTLTISRLEPEDFAVYYCHQYHRSTPTFGGGTKVEIK
notes: Fab
Kd [10]: 1.56 nM
Kd [11]: 3.2 nM
koff [11]: 0.000576 s⁻¹
kon [11]: 182000 M⁻¹ s⁻¹
t 1/2 [11]: 20 min
Kd [12]: 1.6 nM
koff [12]: 0.000215 s⁻¹
kon [12]: 138000 M⁻¹ s⁻¹
t 1/2 [12]: 53.7 min
Kd [13]: 1 nM
koff [13]: 0.000359 s⁻¹
kon [13]: 374000 M⁻¹ s⁻¹
t 1/2 [13]: 32.2 min
Kd [4]: 1.6 nM

B8: TM1 Fab (Fab, V domains shown)
VH: EVQLVESGGGLVKPGGSLRLSCAASGFTFSDAWMDWVRQAPGKGLEWVAEIRSKANYHATYYAESVKGRFTISRDDSKNTLYLQMNSLKTEDTAVYYCTLIRDYWGQGTLVTVSS
VL: EIVLTQSPGTLSLSPGERATLSCTATSSVSSWYLHWYQQKPGQAPRLLIYSTSNLASGIPDRFSGSGSGTDFTLTISRLEPEDFAVYYCHQYHRSTPTFGGGTKVEIK
notes: Fab
Kd [10]: 3.4 nM
Kd [4]: 3.4 nM
